Positions count from the first letter of the chain named. Names and notes keep the numbering of the source.

In data set [1] the test system is Swi6-WT (Schizosaccharomyces pombe). Description: EMSA. Conditions: histone H3K9me3. (A gel shift assay detects complexes by their altered migration in electrophoresis.)
The target in a further data set is H3K9me3 mononucleosomes. Description: native gel or EMSA.
The data set “mass photometry” concerns the molecule itself. The data set can be described thus: mass photometry.
The target of the next data set is T1, MBP-Epe1 (S. pombe, UniProt O94603 1-948).
T1 sequence: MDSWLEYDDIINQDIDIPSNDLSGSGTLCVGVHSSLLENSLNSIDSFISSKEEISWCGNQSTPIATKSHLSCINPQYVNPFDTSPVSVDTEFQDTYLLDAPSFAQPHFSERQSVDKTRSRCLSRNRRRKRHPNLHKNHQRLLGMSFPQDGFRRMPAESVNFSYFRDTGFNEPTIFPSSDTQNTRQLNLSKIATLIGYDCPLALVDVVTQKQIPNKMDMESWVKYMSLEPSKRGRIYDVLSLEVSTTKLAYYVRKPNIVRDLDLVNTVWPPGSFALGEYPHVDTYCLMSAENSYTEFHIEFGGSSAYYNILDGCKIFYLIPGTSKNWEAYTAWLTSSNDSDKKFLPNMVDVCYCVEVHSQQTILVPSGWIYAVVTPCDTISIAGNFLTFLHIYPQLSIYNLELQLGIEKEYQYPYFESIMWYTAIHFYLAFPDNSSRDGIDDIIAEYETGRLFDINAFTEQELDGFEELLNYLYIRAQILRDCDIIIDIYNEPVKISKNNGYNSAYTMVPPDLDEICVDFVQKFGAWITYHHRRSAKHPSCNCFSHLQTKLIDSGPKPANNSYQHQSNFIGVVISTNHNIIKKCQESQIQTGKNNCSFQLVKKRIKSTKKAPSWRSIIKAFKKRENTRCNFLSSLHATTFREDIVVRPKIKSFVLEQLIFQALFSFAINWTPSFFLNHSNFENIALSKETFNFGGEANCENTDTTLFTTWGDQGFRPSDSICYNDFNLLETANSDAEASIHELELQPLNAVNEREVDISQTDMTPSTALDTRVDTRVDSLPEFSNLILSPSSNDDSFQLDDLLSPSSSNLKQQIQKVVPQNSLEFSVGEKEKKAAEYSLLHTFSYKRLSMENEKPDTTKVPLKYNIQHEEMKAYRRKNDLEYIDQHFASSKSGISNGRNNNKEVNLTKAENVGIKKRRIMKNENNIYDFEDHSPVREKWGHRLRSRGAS
The data set can be described thus: pull-down.

For orientation: Kd means the free concentration of one partner at which half of the binding sites on the other are occupied at equilibrium, for simple one-to-one binding. A low value points to a tighter complex. In turn, “H3K9me3 mononucleosome (Epicypher 16-0315-20)” came in with a Kd in data set [1] of 50 nM.

In the data set with H3K9me3 mononucleosomes, “Swi6-T278Y (recombinant, full length) (from UniProt P40381 1-328) (natural protein)” had a Kd of 39 nM and a specificity for H3K9me3 over H3K9me0 mononucleosomes of 2.3 fold.

B1: Swi6-WT (recombinant, full length) (natural protein)
chain: MKKGGVRSYRRSSTSKRSVIDDDSEPELPSMTKEAIASHKADSGSSDNEVESDHESKSSSKKLKENAKEEEGGEEEEEDEYVVEKVLKHRMARKGGGYEYLLKWEGYDDPSDNTWSSEADCSGCKQLIEAYWNEHGGRPEPSKRKRTARPKKPEAKEPSPKSRKTDEDKHDKDSNEKIEDVNEKTIKFADKSQEEFNENGPPSGQPNGHIESDNESKSPSQKESNESEDIQIAETPSNVTPKKKPSPEVPKLPDNRELTVKQVENYDSWEDLVSSIDTIERKDDGTLEIYLTWKNGAISHHPSTITNKKCPQKMLQFYESHLTFRENE
What is called stoichiometry N is the number of molecules, sites or subunits per partner or assembly. In the data set with H3K9me3 mononucleosomes, B1 returned a Kd of 50 nM and a specificity for H3K9me3 over H3K9me0 mononucleosomes of 2.4 fold. Also, in “mass photometry”, binding was characterised by a dissociation constant (Kd) of 0.38 nM and the “stoichiometry N” value was 2.

B2: FLAG-Swi6-WT (recombinant) (natural protein)
chain: B1 chain
Regarding B2, the binding result in the data set with MBP-Epe1 is recorded as “binds”.

B3: Swi6-T278K (recombinant, full length) (natural protein)
chain: B1 chain with T278K
In the case of B3, in the data set “mass photometry”, the Kd stood at 0.2 nM and the “stoichiometry N” value turned out to be 2.

B4: Swi6-T278Y (recombinant, full length) (natural protein)
chain: B1 chain with T278Y
On to B4, for which, in the data set “mass photometry”, the affinity, expressed as Kd, was 0.27 nM and the “stoichiometry N” value was determined as 2.

Source of the values: PMC10705379 (bioRxiv, 2023).
